# Measured values taken from the RNAGym collection of RNA variant scans (doi:10.7554/elife.80360).
# B1: CPEB3 Ribozyme (parent)
# chain: GGGGGCCACAGCAGAAGCGUUCACGUCGCGGCCCCUGUCAGAUUCUGGUGAAUCUGCGAAUUCUGCUGU
# Variants of: B1
# Assay: self-cleavage, relative activity (ratio to wild type); higher = more cleavage; co-transcriptional
row,Variant,self-cleavage
1,A59G C66A,0.779
2,A59G C66G,0.893
3,G58A G68A,0.944
4,C57U C63G,0.397
5,C57U C63A,0.438
6,A59U A60C,0.343
7,A59U A60G,0.56
8,A59U A60U,0.312
9,U55G U64C,0.411
10,U55G U64A,0.371
11,A60G C66G,0.559
12,A60G C66A,0.582
13,A60G C66U,0.818
14,C57G G68A,0.374
15,C57G G68C,0.388
16,G58A C63U,0.957
17,G58A C63G,0.757
18,G56A U69C,1.04
19,G56A U69G,1.03
20,C57G U69C,0.451
21,G56U U64C,0.762
22,A59U U64A,0.459
23,A59U U64G,0.729
24,A59U U64C,0.558

row,Variant,self-cleavage
1,A60C C66G,0.456
2,A60C C66U,0.412
3,G58C U64A,0.955
4,G58C U64C,0.777
5,G58A U69A,0.99
6,G58A U69G,1.02
7,A59C C63A,0.43
8,C57G U64G,0.394
9,C57G U64A,0.349
10,C57G U64C,0.38
11,A59G A60U,0.352
12,A59G A60G,0.533
13,G56U U69A,1
14,G56U U69C,1.04
15,G56A G65C,0.508
16,G56A G65U,0.627
17,G56A G65A,0.777
18,A60G C63G,0.545
19,A60G C63U,0.867
20,A60G C63A,0.429
21,A59G U64A,0.861
22,A59G U64C,0.873
23,G56C A59U,0.392
24,G56A A60C,0.382

row,Variant,self-cleavage
1,G56A A60G,0.856
2,G56A A60U,0.326
3,C57U G65C,0.374
4,C57U G65A,0.357
5,C57U G58C,0.451
6,C57U G58A,0.289
7,C57U G58U,0.42
8,G56U A59G,0.909
9,G58A A59C,0.558
10,G58A A59U,0.592
11,G58A A59G,0.949
12,A59C U69G,0.824
13,A59C U69C,0.934
14,A59C U69A,0.813
15,A60C U67A,0.358
16,A60C U67C,0.313
17,A60C U67G,0.37
18,U55G U62A,0.427
19,U55G U62C,0.517
20,C57G U67G,0.489
21,C57G U67C,0.428
22,C57G U67A,0.325
23,A59G U69G,1.07
24,A59G U69A,1.04

row,Variant,self-cleavage
1,G56C U62C,0.524
2,G56C U62A,0.355
3,C57U A59U,0.256
4,C57U A59G,0.354
5,C57G G58C,0.356
6,C57G G58U,0.463
7,C57G G58A,0.377
8,C57A U62C,0.339
9,C57A U62G,0.409
10,G56A C57G,0.306
11,G56A C57U,0.308
12,G56A C57A,0.413
13,C57U U64G,0.365
14,G58A U61A,0.827
15,G58A U61G,0.861
16,G58A U61C,0.82
17,G58C C63U,0.997
18,G58C C63A,0.906
19,G58C C63G,0.823
20,G56C U64C,0.637
21,G56C U64A,0.504
22,A60G U67G,0.902
23,A60G U67C,0.747
24,G56C U69G,0.925

row,Variant,self-cleavage
1,G56C U69A,0.874
2,G56C U69C,1.02
3,A59U G68C,0.941
4,C57G U61G,0.439
5,C57G U61C,0.377
6,C57G U61A,0.399
7,A60G U69G,1.01
8,U55G U61C,0.293
9,U55G U61G,0.547
10,G56U U61A,0.752
11,A60G G65U,0.412
12,A60G G65A,0.373
13,G56U U62C,0.67
14,G56U U62A,0.654
15,G56U U62G,0.563
16,G58C G65U,0.842
17,G58C G65A,0.844
18,C57A A60C,0.264
19,C57A A60U,0.415
20,G56A C63U,0.943
21,G56A C63G,0.667
22,G56C G68U,0.971
23,G56C G68A,0.918
24,A59U U62C,0.546

row,Variant,self-cleavage
1,A59U U62G,0.394
2,A59U U62A,0.536
3,C57G A60U,0.291
4,C57G A60G,0.294
5,A60C G65C,0.449
6,G56U A60G,0.712
7,G56U A60U,0.293
8,G56A U67A,0.927
9,G56A U67C,0.913
10,G56A U67G,0.995
11,G58A U67A,0.968
12,G58A U67C,0.993
13,G56A U64A,0.798
14,C57A U64A,0.357
15,C57A U64C,0.401
16,C57A U67G,0.445
17,G56C A60G,0.608
18,G56C A60U,0.795
19,C57U U67G,0.509
20,C57U U67A,0.365
21,C57U U67C,0.465
22,G58A U64A,0.92
23,G58A U64C,0.861
24,A60U C63A,0.391

row,Variant,self-cleavage
1,A60U C63U,0.479
2,A60U C63G,0.38
3,U55G G58C,0.964
4,C57A U69G,0.455
5,C57A U69A,0.377
6,G56A G58U,0.994
7,G58C A59U,0.701
8,G58C A59G,0.982
9,G58C A59C,0.636
10,C57A C66A,0.37
11,C57A C66G,0.373
12,C57A C66U,0.267
13,G56U C57G,0.384
14,C57G C66A,0.308
15,C57A G58A,0.313
16,C57A G58U,0.367
17,G58C A60G,0.683
18,G58C A60C,0.359
19,A60C C63U,0.468
20,A60C C63G,0.344
21,G58C U61G,0.912
22,G58C U61A,0.877
23,A59U U69C,1.02
24,G58U A60G,0.977

row,Variant,self-cleavage
1,G58U A60U,0.331
2,C57G G65A,0.37
3,C57G G65C,0.428
4,C57G G65U,0.254
5,A60C U61A,0.472
6,A60C U61G,0.3
7,A59G U61C,0.785
8,A60C G68U,0.395
9,A60C G68C,0.392
10,U55G U69G,1
11,U55G U69A,0.953
12,G56U G58A,0.924
13,G56U G58C,0.989
14,G56U G58U,0.978
15,A59C G68U,0.939
16,A59C G68A,0.908
17,G56U,0.968
18,G56C,0.871
19,G56A,0.977
20,C57U C66A,0.316
21,C57U C66G,0.317
22,A59G G68U,1.02
23,A59G G68A,1
24,G58C U62C,0.902

row,Variant,self-cleavage
1,G58C U62A,0.918
2,A59C A60G,0.535
3,A59C A60C,0.38
4,C57U U69G,0.473
5,C57U U69A,0.478
6,G56U C63U,0.842
7,G56U C63A,0.51
8,G56U C63G,0.485
9,G58U C66U,1.02
10,G58U C66A,0.928
11,A59U C66U,0.775
12,G56U C66A,0.447
13,C57G A59G,0.375
14,C57G A59U,0.388
15,C57U A60G,0.39
16,C57U A60U,0.298
17,C57U A60C,0.372
18,G58A U62C,0.872
19,G56C C57U,0.483
20,G56C C57A,0.3
21,G56C C57G,0.343
22,G56A U61A,0.824
23,U55G U67C,0.612
24,U55G U67A,0.884

row,Variant,self-cleavage
1,G58A C66G,0.881
2,G58A C66U,0.938
3,G58A C66A,0.81
4,C57A C63U,0.408
5,C57A C63A,0.351
6,C57A C63G,0.404
7,C57A U61C,0.273
8,G58U U62C,0.953
9,G58U U62G,1.01
10,G58U U62A,0.958
11,A60G G68U,0.954
12,U55G G68A,0.951
13,U55G G68C,0.972
14,C57G U62A,0.333
15,C57U U62C,0.41
16,C57U U62A,0.363
17,G58U U64C,0.959
18,G58U U64A,0.956
19,G58U U64G,0.971
20,A60G U61G,0.533
21,A60G U61A,0.632
22,A59G G65U,0.694
23,A59G G65C,0.512
24,G58C G68A,1

row,Variant,self-cleavage
1,G58C G68C,0.963
2,G58C G68U,1.02
3,G56U G68U,0.985
4,C57U G68U,0.416
5,C57U G68A,0.395
6,U55G G65U,0.307
7,U55G G65A,0.408
8,U55G G65C,0.417
9,C57A A59U,0.46
10,C57A A59G,0.426
11,A59C U61C,0.446
12,A59C G65C,0.374
13,G56A U62A,0.811
14,G56A U62C,0.732
15,G56A U62G,0.775
16,G58A G65A,0.901
17,G56C G65U,0.512
18,G58U U67G,1.02
19,G58U U67C,1.01
20,G58U U67A,0.982
21,A59U U67A,0.805
22,A59U U67C,0.867
23,A59U U61A,0.443
24,A59U U61C,0.358

row,Variant,self-cleavage
1,A59U U61G,0.512
2,G58U G68A,0.993
3,G58U G68C,1.03
4,G58U G68U,0.966
5,C57A G65A,0.346
6,C57G C63A,0.291
7,A59U C63G,0.545
8,A59U C63U,0.734
9,A59G U62G,0.944
10,A59G U62C,0.717
11,A60C U64G,0.333
12,A60C U64A,0.267
13,G56A C66U,0.929
14,G56A C66G,0.744
15,A59G C63G,0.691
16,A59G C63A,0.857
17,G58A A60C,0.495
18,G58A A60G,0.83
19,G58A A60U,0.919
20,A59U G65A,0.531
21,A59U G65U,0.329
22,A59U G65C,0.497
23,G58U U61C,0.892
24,G58U U61G,0.908

row,Variant,self-cleavage
1,A59G U67A,0.991
2,A59G U67G,1.03
3,A59G U67C,0.976
4,C57U U61G,0.463
5,C57U U61C,0.371
6,G56C U61A,0.554
7,G56C U61G,0.483
8,G56C U61C,0.434
9,A60G U62C,0.436
10,A60G U62G,0.687
11,A59C U62C,0.407
12,A59C U62G,0.423
13,A59C U67C,0.806
14,A59C U67A,0.689
15,G58U A59C,0.8
16,G58U A59U,0.749
17,A60U C66U,0.505
18,G56C U67G,0.758
19,G56C U67C,0.878
20,G56C U67A,0.941
21,A59C C66A,0.365
22,A59C C66G,0.441
23,A60C U69C,0.627
24,G58U G65C,0.863

row,Variant,self-cleavage
1,G58U C63U,1.03
2,G58U C63G,1.01
3,G58C C66A,0.818
4,G58C C66G,0.884
5,G58U U69G,1.03
6,G56C C66A,0.39
7,G56C C66U,0.748
8,G56C C66G,0.517
9,A59C U64G,0.633
10,A59C U64A,0.471
11,G56A G68A,0.995
12,G58C U67A,0.988
13,G58C U67C,0.961
14,A60C U62G,0.429
15,C57A G68A,0.367
16,C57A G68U,0.394
17,G56U G65C,0.506
18,A60U G65A,0.527
19,G56A A59U,0.735
20,G56A A59G,0.649
21,G58C U69A,0.998
22,G58C U69G,1.05
